{"source": "patent US20250127918A1", "about": "“SITE-SELECTIVE CONJUGATION OF A PHARMACEUTICAL AGENT TO AN ANTIBODY USING AN AFFINITY PEPTIDE” (priority 2023, published 2025)", "key": {"Dupilumab (hIgG4)": {"system": "Dupilumab (hIgG4)", "assay": "Small bioconjugation handle installation to other IgGs (Q-ToF LC-MS)", "type": "biochemical, human", "conditions": "20 equivalents, room temperature", "method": "Reactions were performed on a 10 μL scale using 0.2 mL PCR tubes (FIG. 64). First, the electrophile-attached Z33 peptide reagent was dissolved in water to prepare a 2 mg/mL solution. IgG (human WN1 (prepared as previously described (ChemBioChem, 19, 2039-2044 (2018)), denosumab (Invitrogen), dupilumab (Invitrogen), or mouse IgG1 (Invitrogen, subtype controlled)), electrophile-attached Z33 peptide reagent (2 mg/mL), HEPES buffer (pH 8.5), and NaCl solution were added to achieve final concentrations of 5 μM, 100 μM, 100 mM, and 200 mM. The contents were mixed using a 5 μL pipette and incubated at room temperature in the dark for 24 hours. The resulting reaction solution was quenched with a 100 mM Tris buffer and analyzed by LC-MS (FIGS. 53A to 53D, Table 10). Sample preparation for LC-MS analysis was performed in the same manner as previously described.\nReactions were performed on a 10 μL scale using 0.2 mL PCR tubes. First, the electrophile-attached Z33 peptide reagent was dissolved in water to prepare a 2 mg/mL solution. Denosumab (Invitrogen), dupilumab (Invitrogen), or mouse IgG1 (Invitrogen, subtype controlled)), electrophile-attached Z33 peptide reagent (2 mg/mL), HEPES buffer (pH 8.5), and NaCl solution were added to achieve final concentrations of 5 μM, 100 μM, 100 mM, and 200 mM. […] The resulting reaction solution was quenched with a 100 mM Tris buffer and analyzed by LC-MS. […]"}, "Trastuzumab [1]": {"molecular_target": "T1, Trastuzumab (Homo sapiens, UniProt P01857, D239E/L241M)", "T1 construct": "purchased Syd Labs Inc; MedChemExpress LLC; Bio X Cell", "assay": "Bioconjugation handle / GLP1 transfer to trastuzumab, analyzed by Q-ToF LC-MS", "type": "biochemical", "method": "The conversion rate for each reaction was calculated by one of the following methods. Determination by LC-MS: Reported yields based on LC-MS spectra were determined by extracting the total ion current (TIC) spectra of all protein-containing species in the chromatogram utilizing Agilent MassHunter 6.0 software with BioConfirm package. These extracted chromatograms were deconvoluted utilizing a maximum entropy algorithm and abundance of each species determined using total ion count.\nA reaction solution corresponding to 9.0 μg of IgG was taken into a PCR tube and diluted with Tris buffer (100 mM, pH 8.1) to a final volume of 6 μL. […] Afterward, DTT (200 mM in water, 2 μL) was added, and the mixture was further incubated at 37° C. for 1 hour. Finally, the solution was diluted to a volume of 40 μL with a mixture of water and acetonitrile (95:5), and 8 μL of the diluted solution was injected into LC-MS.\nReactions were performed on a 20 μL scale using 0.2 mL PCR tubes (FIG. 61). First, the electrophile-attached Z33 peptide reagent was dissolved in water to prepare a 2 mg/mL solution. Trastuzumab (MedChemExpress LLC. or Bio X Cell), electrophile-attached Z33 peptide reagent (2 mg/mL), and buffer were added to achieve final concentrations of 10 μM, 200 μM, and values listed in the following table, respectively. If the HEPES was used as a buffer, NaCl solution (4M, 1 uL) was added to the reaction mixture. […] The resulting reaction solution was quenched with a 100 mM glycine buffer of 100 mM Tris buffer and analyzed by LC-MS. Sample preparation for LC-MS analysis was performed in the same manner previously described. […] Therefore, a post-processing step was implemented to remove electrophiles using an Amicon® filter. The reaction mixture was diluted to 200 μL with citrate buffer (100 mM, pH 2.7) and filtered through an Amicon® filter (0.5 mL, 50KMWCO) at 14000 rcf for 7 minutes. […]\nReactions were performed on a 20 μL scale using 0.2 mL PCR tubes (FIG. 61). […] The resulting reaction solution was quenched with a 100 mM Tris buffer and analyzed by LC-MS (FIG. 53, Table 8)."}, "Trastuzumab [2]": {"molecular_target": "T1, Trastuzumab", "assay": "Bioconjugation handle / GLP1 transfer to trastuzumab, analyzed by Q-ToF LC-MS", "type": "biochemical", "conditions": "10 equivalents, 100 mM HEPES pH 8.5, room temperature, 24 h"}, "[3]": {"assay": "Whole-body biodistribution of [89Zr]Zr-labelled affinity peptides after subcutaneous injection (gamma counter)", "conditions": "mouse, in vivo, sc"}, "[4]": {"conditions": "mouse, in vivo, ip", "method": "Each sample was weighted and count in a gamma counter (Wizard2, Perkin Elmer LLC, USA) to get the counts per minutes (cpm) for determining the percentage of injected activity per gram (% IA/g) in each organ. Cpm were decay-corrected by using the following formula: A=A0 e((−(ln2)Δt)/T) with A=decay-corrected cpm, A0=raw cpm, Δt=time difference between the injection and the cpm measurement, and T=half-life of the radionuclide (i.e. 78.41 h for Zr-89)."}}, "data": [{"sequence": "FNMQQQRRFYEALHD PNLNHcyEQRNAKIKSI RDD [PEL-21]", "values": [{"measurement": "Light chain total conversion", "setting": "Dupilumab (hIgG4); HEPES pH 8.5, first column so headed", "value": 13, "unit": "%"}, {"measurement": "Light chain total conversion", "setting": "Dupilumab (hIgG4); HEPES pH 8.5, second column so headed", "value": 96, "unit": "%"}, {"measurement": "Light chain total conversion", "setting": "Trastuzumab [1]; 20 equivalents, PBS, room temperature, 24 h", "value": 12, "unit": "%"}, {"measurement": "Light chains modified with the electrophile", "setting": "Trastuzumab [1]; hIgG1-2, excess (20 eq.) reagent", "value": "less than 2%"}, {"measurement": "Modifications incorporated into the heavy chain of Tmab", "setting": "Trastuzumab [1]; hIgG1 trastuzumab (1 eq.), peptide 20 eq., after 24 h", "value": "up to 99%"}, {"measurement": "Light chain total conversion", "setting": "Trastuzumab [2]", "value": 5, "unit": "%"}, {"measurement": "Time detectable in the kidneys", "setting": "[3]", "value": "up to 240 hours"}, {"measurement": "Time remaining in specific organs", "setting": "[4]", "value": "up to 144 hours"}]}]}
